Results on one substance are retold here after patent US20240052034A1.

The assay deals with PD-1 on PD-1 reporter Jurkat cells (UniProt Q15116). In words: cell-based or functional assay.
Sequence of PD-1 on PD-1 reporter Jurkat cells (Q15116 25-288 limits assumed): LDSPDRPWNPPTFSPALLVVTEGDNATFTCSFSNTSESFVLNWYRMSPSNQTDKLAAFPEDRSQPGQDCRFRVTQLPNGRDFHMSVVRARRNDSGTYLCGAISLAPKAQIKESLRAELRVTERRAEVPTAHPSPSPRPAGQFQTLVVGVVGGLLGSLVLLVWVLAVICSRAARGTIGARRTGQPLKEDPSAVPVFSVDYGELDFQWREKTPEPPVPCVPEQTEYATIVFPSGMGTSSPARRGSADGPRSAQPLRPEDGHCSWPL

As for LY3462817 (antibody), the EC50 of SHP-2 recruitment, PD-1 reporter Jurkat cells, Ig-tethered test article on anti-human IgG coated plates came out at 5.69 nM.
